Experimental data published in paper PMC12083921.

Tests used:
[1] = target: AKAP150, mRFP-tagged (rat) (rat) (UniProt P24587); test: FRAP
[2] = target: AKAP79, mRFP-tagged, full length (human) (human) (UniProt P24588); test: FRAP
[3] = target: AKAP79^FAAF, mRFP-tagged (human) (human) (UniProt P24588); test: FRAP
[4] = target: AKAP79^FAAF, GFP-tagged, full length (human) (human) (UniProt P24588); test: co-IP
[5] = target: AKAP79^AF, GFP-tagged, full length (human) (human) (UniProt P24588); test: co-IP
[6] = target: AKAP79^FA, GFP-tagged, full length (human) (human) (UniProt P24588); test: co-IP

Sequence of UniProt P24587 (P24587 whole entry): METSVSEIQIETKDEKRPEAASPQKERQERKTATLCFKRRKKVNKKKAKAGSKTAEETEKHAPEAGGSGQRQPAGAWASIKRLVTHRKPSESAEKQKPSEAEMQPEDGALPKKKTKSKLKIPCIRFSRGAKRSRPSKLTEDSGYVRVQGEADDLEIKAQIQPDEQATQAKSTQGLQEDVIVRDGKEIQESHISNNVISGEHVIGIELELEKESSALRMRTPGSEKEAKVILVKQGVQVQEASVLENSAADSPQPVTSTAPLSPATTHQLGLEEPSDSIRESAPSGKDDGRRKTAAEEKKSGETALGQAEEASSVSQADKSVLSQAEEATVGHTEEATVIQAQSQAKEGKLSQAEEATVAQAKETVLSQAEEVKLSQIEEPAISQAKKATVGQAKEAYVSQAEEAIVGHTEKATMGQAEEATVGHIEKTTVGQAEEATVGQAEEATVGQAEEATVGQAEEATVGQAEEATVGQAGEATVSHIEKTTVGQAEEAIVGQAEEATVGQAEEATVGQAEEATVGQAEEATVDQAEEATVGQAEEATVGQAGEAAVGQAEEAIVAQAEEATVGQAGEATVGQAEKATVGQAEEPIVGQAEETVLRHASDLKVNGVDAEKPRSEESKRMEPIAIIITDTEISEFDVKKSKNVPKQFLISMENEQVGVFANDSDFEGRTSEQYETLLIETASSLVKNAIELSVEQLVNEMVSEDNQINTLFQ

PKA type II regulatory subunit alpha, iRFP-tagged (RII-iRFP) (from UniProt P13861 1-404) (natural protein)
FRAP recovery half-time [1]: 12.3 s | FRAP recovery rate constant [1]: 0.057 s⁻¹ | FRAP recovery half-time [2]: 14.4 s | FRAP recovery rate constant [2]: 0.049 s⁻¹ | FRAP recovery half-time [3]: 11.4 s | FRAP recovery rate constant [3]: 0.062 s⁻¹

PKA type I regulatory subunit alpha (RIα), endogenous (from UniProt P10644 1-381) (natural protein)
fold RI band intensity over controls [4]: 3.55 fold

PKA type I regulatory subunit alpha, iRFP-tagged (RI-iRFP) (from UniProt P10644 1-381) (natural protein)
FRAP recovery half-time [2]: 8.74 s | FRAP recovery rate constant [2]: 0.079 s⁻¹ | FRAP recovery half-time [3]: 20.5 s | FRAP recovery rate constant [3]: 0.034 s⁻¹

PKA type II regulatory subunit alpha (RIIα), endogenous (from UniProt P13861 1-404) (natural protein)
percent decrease of RII binding against WT AKAP79 [5]: 22% | percent decrease of RII binding against WT AKAP79 [6]: 45% | percent decrease of RII binding against WT AKAP79 [4]: 45%
